Test results reported in US20260242450A1.
Residue numbers refer to the chain shown, from its start.

B1: 05_C07 (antibody, V domains shown)
VH: HVQLWQSGAEVKKPGASVKISCSAWGFGTRSGYTFRDYRIHWVRQVPRQGFEWMGHLHPAYGAVNYARQFQGRIIMTREVSFDGSGGTVYMELRSLRSDDTATYYCVTHKLYDGEDASDLTWRLDPWGQGTRVTVSS
VL: GVSLTQSPASLCASVGDRVTFTCQASQDITNAINWYQLRPGKTPKLMIHDGSTLRRGVPSRFAGSGFGTRFTFTIDNLQPEDLATYFCQHYEFFPPAGTQVDFN
B2: 01_B01 (antibody, V domains shown)
VH: HVQLWQSGAEVKKPGASVKISCAAWGFGTTSGYSFRDYRIHWVRQVPGQGFQWMGHIQPRYGAVNYAHQFQGRITMTREVSFDASGGTAYMELRSLRSDDTATYYCVTHKLYDGEDASDLAWRLDPWGQGTRVTVSS
VL: B1 VL with S3H, C12S, S65G, R70K, D102E, F103L
B3: 01_D03 (antibody, V domains shown)
VH: B2 VH with A23S, I40V, Q45H, V46I, P47A, I57M, H68R, T103V, A121T, T134I
VL: B1 VL with S3H, C12S, R70K, A97V, D102E, F103L
B4: 04_A06 (antibody, V domains shown)
VH: SVRLDQSGTAVKKPGASVRVSCRAPDSFTVYRPRLSAYFIGEFNIHWLRQAPGQGLEWLGFVNIFRGAVKYSSRFQGRITITRDTSSETSYLDLGALKADDTATYYCAWDKNVDDNPWRLDSWGQGTLVIVSS
VL: YIQVTQSPSSLSASIGDTITVACEVSQDVGWAVNWYHQRPGRPPYNLIYTAHNLAPGVASRFRGSRVGTYFTLTINNLLPEDVGTYYCQVFDSFAPGGTRVDLR
B5: 04_B09 (antibody, V domains shown)
VH: B4 VH with R74A, Q76R, S87L, A99P, Y106F, I130V
VL: B4 VL with I15V, E24Q, A51T, H52S, S65T, G68A, D92E

Columns and labels:
[1] = target: HIV-1 envelope proteins of the panel of 12 global reference pseudovirus strains of HIV-1 ("global panel")
[2] = target: HIV-1 envelope proteins of the panel of 8 pseudoviruses insensitive against neutralization by CD4bs bNAbs (constituents of the 119 multiclade panel)
[3] = target: HIV-1 envelope proteins of the panel of 100 clade C HIV-1 pseudoviruses (Subtype C panel)
[4] = target: HIV-1 envelope proteins of the panel of 7 pseudoviruses selected from the "Resistant panel to CD4bs bNAbs"
[5] = target: HIV-1 envelope proteins of the panel of 9 pseudoviruses resistant against CD4bs bNAbs (constituents of the 119 multiclade and Subtype C panels)
[6] = target: HIV-1 envelope proteins of the panel of 185 pseudoviruses generated from virus sequences obtained from the Antibody Mediated Prevention (AMP) trials
[7] = target: HIV-1 envelope proteins of the multiclade panel of 119 pseudoviruses

| Binder | geometric mean IC50, TZM-bl cell pseudovirus neutralization assay [1] | neutralizing activity, TZM-bl cell pseudovirus neutralization assay (breadth) [1] | further results |
| --- | --- | --- | --- |
| B1 | < 0.05 µg/mL | 100% | – |
| B2 | < 0.05 µg/mL | 100% | – |
| B3 | 0.021 µg/mL | 100% | neutralizing activity, TZM-bl cell pseudovirus neutralization assay (breadth) [2]: 88% |
| B4 | 0.038 µg/mL | 100% | geometric mean IC50, TZM-bl cell pseudovirus neutralization assay [3]: 0.057 µg/mL; neutralizing activity, TZM-bl cell pseudovirus neutralization assay (breadth) [3]: 99%; IC50, TZM-bl cell pseudovirus neutralization assay [4]: 0.153 µg/mL; neutralizing activity, TZM-bl cell pseudovirus neutralization assay (breadth) [4]: 86%; neutralizing activity, TZM-bl cell pseudovirus neutralization assay (breadth) [5]: 100%; GeoMean IC50, TZM-bl cell pseudovirus neutralization assay [6]: 0.084 µg/mL; neutralizing activity, TZM-bl cell pseudovirus neutralization assay (breadth) [6]: < 98%; geometric mean IC50, TZM-bl cell pseudovirus neutralization assay [7]: 0.036 µg/mL; neutralizing activity, TZM-bl cell pseudovirus neutralization assay (breadth) [7]: 99% |
| B5 | < 0.05 µg/mL | 100% | – |
